This note sets out measurements from publication PMC11156904, “Nucleic acid mediated activation of a short prokaryotic Argonaute immune system”.

Where “and” joins values, the source holds several entries; their conditions need not be identical. Equal values may be shown once.

Data set [1] concerns the target SPARTA heterodimer (TIR-APAZ/short pAgo complex) from Crenotalea thermophila (Crenotalea thermophila). As to the kind of experiment: cryo-EM structure; SPARTA oligomer bound to gRNA/tDNA, nominal 3.15-3.35 Å.
Data set [2] shares this target. As to the kind of experiment: mass photometry; CrtSPARTA incubated with gRNA/tDNA (5 mM MgCl2, 55 °C, 12 hours), 100-fold diluted, in 20 mM HEPES pH 7.5, 100 mM KCl, 2 mM DTT.
The target in data set [3] is T1, CrtSPARTA TIR-APAZ;CrtSPARTA short pAgo (CrtAgo) (Crenotalea thermophila;Crenotalea …, UniProt A0A1I7NFG5;A0A1I7NFD7 1-450;1-507, |).
T1 sequence 1: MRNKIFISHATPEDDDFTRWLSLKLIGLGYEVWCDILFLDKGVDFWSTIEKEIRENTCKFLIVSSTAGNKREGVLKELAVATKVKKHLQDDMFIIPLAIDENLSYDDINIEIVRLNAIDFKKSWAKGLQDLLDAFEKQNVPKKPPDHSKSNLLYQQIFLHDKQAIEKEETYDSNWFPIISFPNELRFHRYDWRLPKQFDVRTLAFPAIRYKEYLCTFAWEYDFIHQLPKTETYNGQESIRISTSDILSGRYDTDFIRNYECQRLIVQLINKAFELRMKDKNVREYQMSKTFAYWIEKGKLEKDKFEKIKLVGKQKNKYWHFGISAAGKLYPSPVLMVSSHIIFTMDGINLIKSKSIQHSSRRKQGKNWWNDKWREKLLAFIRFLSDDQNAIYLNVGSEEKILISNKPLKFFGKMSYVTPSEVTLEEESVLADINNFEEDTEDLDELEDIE
T1 sequence 2: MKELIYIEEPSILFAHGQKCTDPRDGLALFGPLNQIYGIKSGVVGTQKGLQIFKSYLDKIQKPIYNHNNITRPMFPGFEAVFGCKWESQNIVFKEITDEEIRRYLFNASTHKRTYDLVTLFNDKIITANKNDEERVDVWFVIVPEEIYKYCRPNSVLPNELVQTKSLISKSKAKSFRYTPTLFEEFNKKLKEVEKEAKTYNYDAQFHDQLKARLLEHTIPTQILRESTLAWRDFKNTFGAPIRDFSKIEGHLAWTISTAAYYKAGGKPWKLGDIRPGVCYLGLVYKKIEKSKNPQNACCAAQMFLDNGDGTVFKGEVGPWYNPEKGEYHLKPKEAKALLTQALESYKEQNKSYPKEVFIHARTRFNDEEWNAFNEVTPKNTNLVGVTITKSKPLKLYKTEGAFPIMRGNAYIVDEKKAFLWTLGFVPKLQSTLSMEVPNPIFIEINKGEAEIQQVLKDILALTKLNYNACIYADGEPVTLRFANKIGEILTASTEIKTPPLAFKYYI
Kind of data set: cryo-EM structure; 5 mM MgCl2; Mg2+ seen in MID pocket; 4 heterodimers, one duplex each; 20 mM HEPES pH 7.5, 100 mM KCl, 1 mM DTT, 5 mM MgCl2; 1.5 mg/ml SPARTA, 16 uM gRNA 37 C 1 h, then 16 uM tDNA 55 C 12 h. The settings on record: protein: recombinant;recombinant; tags: 6xHis-MBP removed by TEV;none stated on this chain; copies: 1;1; 21 bp; tDNA 5' overhang 23 nt and 3' overhang 1 nt; guide loaded first, then target.

Data set [4] addresses T2, CrtSPARTA TIR-APAZ;CrtSPARTA short pAgo loop10-9 deletion (Crenotalea thermophila;Crenotalea …, UniProt A0A1I7NFG5;A0A1I7NFD7 1-450;1-507, |del322-327).
T2 sequence 1: T1 sequence 1
T2 sequence 2: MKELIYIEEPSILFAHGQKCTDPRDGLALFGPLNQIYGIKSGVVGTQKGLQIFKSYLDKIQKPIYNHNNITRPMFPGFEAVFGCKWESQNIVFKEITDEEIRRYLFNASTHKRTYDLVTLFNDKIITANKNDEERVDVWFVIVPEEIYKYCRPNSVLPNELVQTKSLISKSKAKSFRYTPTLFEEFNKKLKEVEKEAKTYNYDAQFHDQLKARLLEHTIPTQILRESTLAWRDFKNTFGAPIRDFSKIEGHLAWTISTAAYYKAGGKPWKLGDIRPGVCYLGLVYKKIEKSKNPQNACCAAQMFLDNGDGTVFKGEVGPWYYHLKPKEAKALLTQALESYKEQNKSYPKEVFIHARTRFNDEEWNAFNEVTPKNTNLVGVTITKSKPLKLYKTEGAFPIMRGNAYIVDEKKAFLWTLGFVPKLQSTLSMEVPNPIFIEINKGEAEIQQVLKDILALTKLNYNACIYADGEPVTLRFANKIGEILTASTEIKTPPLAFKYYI
As to the kind of experiment: mass photometry; binds as single heterodimer (~134.6 kDa, expected 132.6); loses dimer formation; 20 mM HEPES pH 7.5, 100 mM KCl, 1 mM DTT, 5 mM MgCl2; 1.5 mg/ml SPARTA, 16 uM gRNA 37 C 1 h, then 16 uM tDNA 55 C 12 h. The settings on record: protein: recombinant;recombinant; tags: 6xHis-MBP removed by TEV;none stated on this chain; copies: 1;1; 21 bp; tDNA 5' overhang 23 nt and 3' overhang 1 nt; guide loaded first, then target.

By stoichiometry N is commonly meant the number of molecules, sites or subunits per partner or assembly. Turning to “SPARTA heterodimer (TIR-APAZ/short pAgo complex) from Crenotalea thermophila”, the stoichiometry N in data set [1] is 4; in data set [2], 2 and 4.

B1: gRNA/tDNA duplex (DNA:RNA)
RNA: UGAGGUAGUAGGUUGUAUAGU
DNA: AAACGACGGCCAGTGCCAAGCTTACTATACAACCTACTACCTCAT
modifications: 5'-phosphate on guide RNA
On to B1, for which the binding result in data set [3] and in data set [4] was “binds” throughout.
